According to article PMC6925194:

experiment: CHO co-transfection, flow cytometry fusion index; settings: glycan lost; control: wild-type ASCT2

Row | Protein | other: SYN1-induced cell-cell fusion
1 | ASCT2 (Alanine, Serine, Cysteine Transporter 2; SLC1A5): N163H (protein) parent chain: MVADPPRDSKGLAAAEPTANGGLALASIEDQGAAAGGYCGSRDQVRRCLRANLLVLLTVVAVVAGVALGLGVSGAGGALALGPERLSAFVFPGELLLRLLRMIILPLVVCSLIGGAASLDPGALGRLGAWALLFFLVTTLLASALGVGLALALQPGAASAAINASVGAAGSAENAPSKEVLDSFLDLARNIFPSNLVSAAFRSYSTTYEERNITGTRVKVPVGQEVEGMNILGLVVFAIVFGVALRKLGPEGELLIRFFNSFNEATMVLVSWIMWYAPVGIMFLVAGKIVEMEDVGLLFARLGKYILCCLLGHAIHGLLVLPLIYFLFTRKNPYRFLWGIVTPLATAFGTSSSSATLPLMMKCVEENNGVAKHISRFILPIGATVNMDGAALFQCVAAVFIAQLSQQSLDFVKIITILVTATASSVGAAGIPAGGVLTLAIILEAVNLPVDHISLILAVDWLVDRSCTVLNVEGDALGAGLLQNYVDRTESRSTEPELIQVKSELPLDPLPVPTEEGNPLLKHYRGPAGDATVASEKESVM | no change
2 | ASCT2 (Alanine, Serine, Cysteine Transporter 2; SLC1A5): N212H (protein) parent chain: MVADPPRDSKGLAAAEPTANGGLALASIEDQGAAAGGYCGSRDQVRRCLRANLLVLLTVVAVVAGVALGLGVSGAGGALALGPERLSAFVFPGELLLRLLRMIILPLVVCSLIGGAASLDPGALGRLGAWALLFFLVTTLLASALGVGLALALQPGAASAAINASVGAAGSAENAPSKEVLDSFLDLARNIFPSNLVSAAFRSYSTTYEERNITGTRVKVPVGQEVEGMNILGLVVFAIVFGVALRKLGPEGELLIRFFNSFNEATMVLVSWIMWYAPVGIMFLVAGKIVEMEDVGLLFARLGKYILCCLLGHAIHGLLVLPLIYFLFTRKNPYRFLWGIVTPLATAFGTSSSSATLPLMMKCVEENNGVAKHISRFILPIGATVNMDGAALFQCVAAVFIAQLSQQSLDFVKIITILVTATASSVGAAGIPAGGVLTLAIILEAVNLPVDHISLILAVDWLVDRSCTVLNVEGDALGAGLLQNYVDRTESRSTEPELIQVKSELPLDPLPVPTEEGNPLLKHYRGPAGDATVASEKESVM | no change
3 | ASCT2 (Alanine, Serine, Cysteine Transporter 2; SLC1A5): N163H/N212H (protein) parent chain: MVADPPRDSKGLAAAEPTANGGLALASIEDQGAAAGGYCGSRDQVRRCLRANLLVLLTVVAVVAGVALGLGVSGAGGALALGPERLSAFVFPGELLLRLLRMIILPLVVCSLIGGAASLDPGALGRLGAWALLFFLVTTLLASALGVGLALALQPGAASAAINASVGAAGSAENAPSKEVLDSFLDLARNIFPSNLVSAAFRSYSTTYEERNITGTRVKVPVGQEVEGMNILGLVVFAIVFGVALRKLGPEGELLIRFFNSFNEATMVLVSWIMWYAPVGIMFLVAGKIVEMEDVGLLFARLGKYILCCLLGHAIHGLLVLPLIYFLFTRKNPYRFLWGIVTPLATAFGTSSSSATLPLMMKCVEENNGVAKHISRFILPIGATVNMDGAALFQCVAAVFIAQLSQQSLDFVKIITILVTATASSVGAAGIPAGGVLTLAIILEAVNLPVDHISLILAVDWLVDRSCTVLNVEGDALGAGLLQNYVDRTESRSTEPELIQVKSELPLDPLPVPTEEGNPLLKHYRGPAGDATVASEKESVM | no change
